Source: patent US20210253725A1 (BIONTECH, published 2021)

T1: CD134 expressed on the cell surface of HT1080_OX40 cells (human, UniProt P43489 29-277)
T1 sequence (looked up): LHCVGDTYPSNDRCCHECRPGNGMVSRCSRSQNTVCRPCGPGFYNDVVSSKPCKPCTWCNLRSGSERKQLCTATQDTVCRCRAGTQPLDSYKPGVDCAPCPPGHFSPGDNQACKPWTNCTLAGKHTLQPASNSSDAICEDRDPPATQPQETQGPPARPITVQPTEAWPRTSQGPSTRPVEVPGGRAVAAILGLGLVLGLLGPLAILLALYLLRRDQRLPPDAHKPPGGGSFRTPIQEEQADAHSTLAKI

T2: CD134 protein (His-tagged, Sino Biological Inc. 10481-H08H) (human, UniProt P43489 29-216)
T2 construct: bought protein coated on ELISA plates; also called OX40; TNFRSF4; not shown: His tag
T2 sequence (looked up): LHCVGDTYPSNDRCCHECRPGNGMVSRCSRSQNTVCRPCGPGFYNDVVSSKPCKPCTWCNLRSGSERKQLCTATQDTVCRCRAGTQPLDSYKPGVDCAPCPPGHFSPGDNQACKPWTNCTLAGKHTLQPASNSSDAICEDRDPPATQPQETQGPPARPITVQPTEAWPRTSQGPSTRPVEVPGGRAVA


Assays:
[1] = biological target: T1, CD134 expressed on the cell surface of …; experiment: cell-based or functional assay
[2] = biological target: T1, CD134 expressed on the cell surface of …; experiment: cell-based or functional assay; remark: listed apart in the source
[3] = biological target: T1, CD134 expressed on the cell surface of …; experiment: HT1080_OX40 cells, imaging; further: test concentration or dose not given here
[4] = biological target: T2, CD134 protein (His-tagged, Sino …); experiment: ELISA, coated His-tagged CD134; further: test concentration or dose not given here
Wherever Functional assay Cross-linked by F(ab′)2 fragment IL-8 is given: test concentration or dose not given here.
Wherever Functional assay IL-8 is given: test concentration or dose not given here.

Binder | Functional assay Cross-linked by F(ab′)2 fragment IL-8 [1] [abs. corr.] | Functional assay IL-8 [1] [abs. corr.] | EC 50 (IL-8 release, cross-linked) [2] [µg/mL] | Cellular binding assay [RFU] [3] [RFU] | ELISA [abs. corr.] [4] [abs. corr.]
P018.S.04.A.E06 (antibody, V domains shown, V regions on human Ig constant parts; also called AB134_11) VH: QSVEESGGRLVTPGTPLTLTCTVSGFSLSGYDMSWVRQAPGKGLEWIGYIYAGSTYYANWAKGRFTISKTSTTVDLKMTSPTTEDTATYFCTRVGAGYSGVWAYFNLWGPGTLVTVSS VL: AQVLTQTPSSVSAAVGGTVTINCQSSQSVDSDNYLAWYQQKPGQPPKLLIYDASKLASGVPSRFTGSGSGTQFTLTISGVQSDDAATYYCQGTYGNIGWYFAFGGGTEVVVK | 2.38 | 0.135 | 1.39 | 140 | 0.206
P018.S.11.A.A05 (antibody, V domains shown, V regions on human Ig constant parts; also called AB134_22) VH: QSVEESGGRLVTPGTPLTLTCTVSGFSLNSYDMSWVRQAPGKGLEWIGFISASGSIYFANWAKGRFTISKTSTTVDLKITSPTTEDTATYFCASDSYGWAYVYYFNLWGPGTLVTVSS VL: AVVLTQTPASVSAAVGGTVTINCRASEDIGSYLGWYQQKPGQPPKLLMHDASDLASGVPSRFSGSGSGTEFTLTISGVQSDDAATYYCQSAWYSSGTDKMAFGGGTEVVVK | 2.15 | 0.26 | 0.865 | 550 | 1.9
P018.S.12.A.E04 (antibody, V domains shown, V regions on human Ig constant parts; also called AB134_75) VH: QSVEESGGRLVTPGTPLTLTCTVSGFSLNSYDMSWVRQAPGKGLEWIGFISASGSIYFANWAKGRFTISKTSTTVDLKITSPTTEDTATYFCASDSYGWAYVYYFNLWGPGTLVTVSS VL: AVVLTQTPASVSAAVGGTVTINCRASEDVGSYLGWYQQRAGQPPKLLMHDASDLASGVPSRFSGSGSGTEFTLTISGVQSDDAATYYCQSAWLGTNTDKMAFGGGTEVVVK | 2.23 | 0.455 | 1.01 | 659 | 2.21

Other lines, results leading:

Functional assay Cross-linked by F(ab′)2 fragment IL-8 [1] [abs. corr.] | Functional assay IL-8 [1] [abs. corr.] | EC 50 (IL-8 release, cross-linked) [2] [µg/mL] | Cellular binding assay [RFU] [3] [RFU] | ELISA [abs. corr.] [4] [abs. corr.] | Binder
2.39 | 0.356 | 1.17 | 451 | 2.97 | P018.S.04.A.H05 (antibody, V domains shown, V regions on human Ig constant parts; also called AB134_15) VH: QSVEESGGRLVTPGTPLTLTCTVSGFSLSSYAMGWVRQAPGKGLEWIGWINTAGGTDYTSWAKGRFTISKTSTTVDLKVTSLTTEDTATYFCARYDYYYFDLWGQGTLVTVSS VL: AQVLTQTASSVSAAVGGTVTISCQSSQSVYDNNWLAWYQQKPGQPPKLLIYSASTLASGVPSRFKGSGSGTEFTLTISDLESDDAAAYYCHGVYSGSIHAFGGGTEVVVI
2.27 | 1.82 | 0.461 | 482 | 2.64 | P018.S.04.A.B06 (antibody, V domains shown, V regions on human Ig constant parts; also called AB134_7) VH: QSVEESGGRLVTPGTFLTLTCTVSGFSLSSYAMNWVRQSPGKGLEWIGIIYSDDIAYYASWAKGRFTISKTSTTVTLKMTSLTVADTATYFCARGDGDRSIWSFDLWGPGTLVTVSS VL: AQVLTQTPSPVSAAVGGTVTISCQSSESVWNNNWLAWYQQKPGQPPNLLIYEASTLASGVSSRFKGSGSGTQFTLTVSEVQSDDAATYYCQGGYYDSSPIWTFGGGTEVVVK
2.3 | 1.01 | 0.355 | 510 | 2.49 | P018.S.04.A.D06 (antibody, V domains shown, V regions on human Ig constant parts; also called AB134_9) VH: QSLEESGGDLVKPGASLTLTCTASGFSFSSSYYMCWVRQAPGKGLEWIACIYTGDGASYYASWAKGRFTISKPSSTTVTLQVTSLTAADTATYFCGRGEYDNDWGFGLWGPGTLVTVSS VL: AYDMTQTPASVEVPVGGTVTINCQASEDISSYLSWYQQKPGQPPELLIYYASNLASGVSSRFKGSRSGTEFTLTISDLESADAATYYCQCSNYGGSWTFGGGTEVVVK
